Reference: the domain aggregation screens of Martell et al. (2025)

Test: soluble fraction after stress (log2 fold change); higher = more stays soluble; pooled small domains, quantitative proteomics
Settings: stress: pH 4
Procedure, shortened: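 High-throughput quantitative proteomics was run on pooled custom libraries of small protein domains following pH 4 stress. Fold changes are on a log2 scale; higher values mean more of a domain remained soluble. The fold change in soluble amount is taken as a measure of aggregation propensity.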

Sequence	soluble fraction (log2)
HMDDTRLLSEIGLSQRVLNALRARGIERVGQVLAMRPDQLLGIRNFGPRALQELRERLQENGYTEGPLFSG	-0.252
HMSNPPIRIGKKALHELLTTWLSLLSRDGVAYLVVQKNLGADSLTAWLRDQGFPSEKIASKKGFRIIEVH	0.0506
HMRMTKPLPFDLAAFRNEFGFTKSIIMQEVGVSRHIYDNVERTNATPPEFYDDFVSFFQRHGQ	-0.203
HMDWVAYGAELRRRRLLAGWSVAELSRRTNLSTSIIYQVEQARTRLRPSQLTLAKLAAALGMP	-0.0217
HMVDDELTARRRVNLRRIADELGGAAAVARKTQKSVQQISSMLNGTKSFGSKIARDIEPKLGLPLQSLDKE	0.203
HMADQIIEGILGKEGGYVNNPNDKGGPTRWGITQTTARAYGYSGDMKALPRDTAKAIYLSQYWT	-0.218
HMGPRPLPAEFTHPSLRALLALGTTRGGVTSADVKTALEAASVPAGRRAAVLRALDDNGIEVHTEP	0.107
HMDTIRINSGSTVKEVAEYLGIPVPEVIKKLMSMGELATLTKTLSDDHIEVLAEEFEKKIKIVHVGEEAD	-0.61
HMTDVRFIDIPVTEHHPWNGMKVRDLQLPPGTLLVFLSHPGEKNTVPHGETVLRSGDVLVLGATAYTGQ	-0.681
HMDQHPYGEDSFRGDNPPAGFDIKGNEDSMKFHEPSSPWYGRTIAEVWFRSAAAAEAAGFVNAV	-0.0254
HMQAPVDPIVLGKMGSSYGIRGWLRVFSSTEDAESIFDYQPWFIQKAGQWQQVQLESWKHHNQDMIIKLN	0.179
HMSNNENSILEKLNSFSGKKIKVSHTIGSLAARLDEYPKIKMWLYKRIRENSINEQAYKYLIFIIERKVR	-0.0495
HMELDFNSVYRQLNHEQKQAYQSIKSVLEQKISGSELDKKLKQAQQAFVAKFKENPNFEVPK	0.22
HMNIMNINQALNVLNLKGTVSKEELAKAYKKMAIKYHPDRNPTGVEMMKVINSAYEFLKGLNLEEIKH	0.252
HMVPFISVTPTSLSFAKGGESKTVDIEASGAFSVGKVPTGFNLEVVNGRITITADANTGAARNGSVEFILA	0.00872
HMTKKSLFNQYLDDQKRLDIVTLQKAELVDLHKLADELNIDQYNQLKKNELIFKILQSNPSE	-0.361
HMLPIGSSREQVISSLNKMHQDYKEEGNFIYAGYFKQGLPLVPSPRISIALQFNETAHLEKIDATLNYV	-0.467
HMNVDSLIGQTARVIVDINNNDSIGYALVGGQEWTARAENDNDIIPKDTLVEIVGVSGVKLIVRRKE	-0.0794
HMKVQEVDYGTFLTMVDEGKVNQVDIENSKQITFNTKGDKNKVYITGQVNDPELVNRLYKAGVEFSQEIP	-0.674
HMIHFDHPERSILDTMLYEKKGMTAQSARNRLAAYQFQGEDVFKPVSVLSGGELSRITLAIKNAMADK	0.0479
HMRLGQLQSVEEPKFIEVHSGKQGDIGEQTIVEYEIDAKYATGDATINLKLLFRDGLFEIYNFNFSSEALL	-0.259
HMQQFGANVRLIRKARQMSIKQLSELSGVSQTMISEVERGLKIPTIDVAGKIAAALGIDLTNLMG	0.0733
HMSVGDLPPEAREIWKLLDGRELSLDLLAEETGRETGALLSTLMMLEMKLLVEHGSDMVYRRIPRR	-1.62
HMEPMLEIFDAKIDLADVLAVESGLVRLRGGAEVTSPRVDVDAGARLELDSGARLNVERLSY	-0.823
HMSSFRDISGTVYVKASAANLRSEPNTSSLIVDTLYYGASLQRISTNDIWTKVKTGNGQIGFMDNSLFQT	≥ 0.43
HMPYNRRYLISNADGALYTVEENGLVKLEETNLTAELFETRGMQDIPDGKLLITLHDPTILYWHDSENLFP	-2.32

Sequence	soluble fraction (log2)
HMAPDDTAVWSAFIGWFRTAPDGPNPLGAYAAKLGEEGLDAAEVGRRMTVIVRLFAEKPEGAEVFYDRTYA	-0.456
HMRGPDLSKDFHEYISSQWMFFGRNAYQIAEQINKDTQLMSKYGKTTPSGVHYHIKQIQQEMEN	-0.984
HMHHDQQQITAELARIARNGLPGLTADNAIISRLDALNLLINIHDDRGADATPLRGLLPAIADELLRLT	0.0087
HMIKVAANESNRSDVLEIVRLFRVRVVDVNPESLTIEATGAEGKIDALLGLLEHYGVIELVRSGAVAVT	-1.1
HMYTDGVPALTDLKKESKPGRRQYVGVEDIPKVLGGLGITILSTSKGLMSGHQAKKKNIGGELIASV	-0.0153
HMVDGTPALTDLKKVSKPGRRHYTGSQEIPRVLNGLGISIVSTSKGIMTGAQARRQKVGGELLAFV	0.22
HMQAKDVEIPNFVGKTLAEANADNKDNFNFVVESKYDASKELGVILEQEPAADSKLVKSGSQITLKV	0.0557
HMAHSWEAIRVKLQQIIDEEDKTKPLNDDQIKEKLAEAGIPNLARRTVAKYRKLLNIPTARFRKR	0.208
HMIGDNNELFQKAQLTPREKEVALLLLQGETNSDIAKILYVGLSTVKKHISSIFEKTKVKSRTEFISKVR	0.0668
HMTPNRDDEHLQSLRDYYASNRRIPSLQRIAALLGFSSRSAAVKLMGRLADEGFVERTVDDDAWIPGSRFF	-0.194
HMKITLAESVYERIRRDIITNQLKPGEKINIRELSTRYEASETPIRLALNRLASENIIEHFPRQGMRVK	-0.0624
HMNLDPHVVGHRLRDLRTRRDLTLADVAAETDISVSTLSRLESGSRRATLELLVPLARTYRVTLDELVDA	-0.353
HMAGDVVVEVVGKVRDPQVVTLPKGSRVQDALEAAGGVKPGVNTTDQNLARLLVDGEQIRIGLSS	0.0302
HMQPAGEGAILRYLSSGAVKGIGPVMAREIVRRFGTDTFRVMEQEPEKLLKVKGITEQRLQTIMESYQD	0.145
HMKNISSEEDREKALSLGITQEFIDNKGRYFITVPNKPSNFKEQALNIQKEISEQIDTVINKRFEF	-0.263
HMKKTAAKVLGESEGKPVTVQSGRYGPYVQLGSIRATLPKDLEQDDVTLDRALELISAKAERAGK	0.0406
HMQTKMVYSDLVNSIKSEQVSSMLVSGNTVTVTLTNGDKAKVKIPSLDTLQADVGKEMNDQMDKGTLKQE	-0.123
HMLNMTLGDRIRSRREELRMSQEELATRLGYKSRSTIAKIESGENDLTQSKIVAFAEALSTTARWLLDY	0.0651
HMDTLRARQEAAYRFLSAIAGDWRNYEEANRALFAGDAARFQDLTESWPADVRDHARHLASAAFSS	-1.15
HMRTITYSITPAHAGMSVERYLKQQHGYSTRTLVKLKHYPQGLQLNGQHARTVDLLQAGDTLAVTFLD	0.145
HMFVEKDSIINKGNNSYNFVITDNNNKVLVEYNGLLPDLFKEEQGVVIEGRLKSDFIIHAFTVF	-0.462
HMDKSNEVLMNHYRKQEINQAKKRLEEEKMSIIQVLQLTNKEVITTDELLEALYISKEQLLDEIINTTQ	-1.02
HMKHSLNHLGLWLLPELSRRDIQLREFAHLLGTTSQGLSDLLRGQRFSSHTLAQWQLRFQEKLDEIDQAS	-0.236
HMNIDQAFISDLERMIMPDISKYELMDIISIMENSGFTIKVEGTGNEVRQVIKPGSKLKKGQKIKIKL	-1.79
HMTFGENLIRLRRQQGLSQEQLGMRIGVSRQTVSKWELNDTTPEMEKLIALADLFGLSLDELTGRV	-0.392
HMDVPNLVGKTLEEAENELKKLNIRYNVTERADEAPKDTVIEQSPKPYEAMEPGTVVNLVISSGPA	-0.912

Sequence	soluble fraction (log2)
HMNLNIGNNIKNIRKSKNMTQTDFAELMGLSRSYIGDLENNRSNPSIKTLEAIARALDVPIVALIN	-0.726
HMLTANPEEVVNRLTSAGEVGVRPLLDVDDPINAISTLLAIREDVYKQFAQFDTVGKSPSEIAHEIDDFL	-0.162
HMQYKTRVINLSILEVGMVLGRDLINKDGKIIVKKDVAISDFLKDHLIGLSKIKEIEPQIYIKV	-0.452
HMGLIDNLTRIMEKKNISAYQLEKAGIVKQTTFTSWKKGTQPALDKIIKIMQYIEVTPNELFGY	-0.456
HMRNSSLQTDLELRAYVIDGLNHFWTPEEIAGRWSLAHPDRPVSFATIYRHIKRKLLPGIEPKTHLRRRGK	≥ 0.43
HMPLDPFVVDALRDEIINTIKQHEPRVDLQKVQVQPIYTQNRVNISVQYKIVGLPIVEDITFVLQRP	0.135
HMELSAEGWVDGTGVRMRASASTDSEVVRVTEDGESLDITGVSGTWYRVTAGGVSGYIRSDYVSLEEP	-0.186
HMGWTTPAGIAVGMDKSVLQDAYGKEDDTFQDKGILYYQYFVHPSRMSGLSFGIKNDKIVSITAYMD	-1.23
HMYALGIPVSQYRRTTQVLGHESSYPIAYEDEKQDDDFYLFKFPNIDEYDFKKIVILLKQNGITT	-0.338
HMTKEEFLYELKKELSALDSAEATAYNLRYYSDYIDAEIAKGRSEQEVLDELGNPRWLVNSIKESG	-0.521
HMTNVIPKAMAPFNGSTIIADGIKNIKDHIDNLYITVGYKGATLSEHVINKGVSAVFNTTGKGNAWWVYN	0.00444
HMIGAKVLVNGQLHRDSYGEGPGQTESNATRLVNYINMKGSHPYHVTTLDGGWRGWVTADSVQV	≥ 0.43
HMAHLSPNDAARLVGVSRPLLNQILDEGRITFFETAGGHRKIKLAAVLAYIKERDEVAAQLAAART	-0.514
HMHIVQEGDSLYGIARQYRITVEELRSLNALETADVIVPYQKLYV	-1.14
HMTFPAILRELLEKHPQTGKRTTLKELGEAVGTRQQSISLYRNGDTQPSPDILVRIAAFFGVSVDYLL	-0.198
HMQSNDTAEIEAVVKEIMAANERVVNDYRSGNTKVVSFFVGQVMKATKGKANPKVVNEVLAKLLK	0.169
HMGQELRFVIQDHEAGIRLDHYLTQQVEGYSRSHLRKLMDQGLITVDGSYRKAGYRLNVGDVIHVVIPPTR	-0.0619
HMNNQVTFSKFLNEVEDGRVVEVNIQGNNITGVLSDGSKFKTFSPNYPNLVEKLSEKGVSINASPL	0.153
HMSSTSTMTVAEATIGRKVKHDKFGEGTIITVADVNGDKKLTIAFNQQGVKMLMLSMAKLEL	-1.05
HMIPYSDLLKLLSNDAMPKFRNKDGWAKIHALETYLASRWSYQEYGFASFTVLLETVHNAEIRNDSVRLM	-0.0131
HMGPIITKTYNLSYATARDVNDIIKSKKSARGDIVIDTRTNSLIVSDVQEKIDLIDEIVATL	-1.37
HMAGPVLTPEEAEVLRILADHGEMTVDNISAEGKMSAAVVLRGLGVLSAYGLVAPGGPGRWRSE	0.00808
HMTGQLTEEELKQRQERAMSNPEIQGILSDPVMRQVLQDMSTDPKAAAEHQRNPTIMAKIQKLINAGIVQV	-0.0717
HMASDEVPGAGFKWREDVLLRVMEANGIDKSNRDDFVRHAVNFDDDDNNYLKKAEIEAAAAAWVESQSPA	-0.239
